Data reported in article PMC6218510, “Step Sizes and Rate Constants of Single-headed Cytoplasmic Dynein Measured with Optical Tweezers” (Scientific Reports, 2018).
Each block holds one substance with its values, some of them ahead of it.

Key:
[1] = system: T1, Nc1ncnc2c1ncn2[C@@H]1O[C@H](COP(=O)(O)OP(=O)(O)OP(=O)(O)O)[C@@H](O)[C@H]1O; test: purified protein; format: biochemical, Homo sapiens; conditions: basal, no microtubules, 25 °C
T1 construct: motor domain with short tail Gly1288-Glu4646 (384 kDa), N-terminal FLAG tag and BCCP kept; Sf9 baculovirus; monomer

[2] = system: T1, Nc1ncnc2c1ncn2[C@@H]1O[C@H](COP(=O)(O)OP(=O)(O)OP(=O)(O)O)[C@@H](O)[C@H]1O; test: optical tweezers, mean displacement of single-headed dynein against ATP; format: biochemical, Homo sapiens; conditions: with microtubules (paclitaxel), pH 7.2, 25 mM PIPES, 25 mM K-acetate, 2 mM MgCl2, 25 °C, half of power stroke size
[3] = biological target: microtubules (polymerized tubulin); test: optical tweezers (single-trap assay) + other: in vitro motility assay; duty ratio calculated from the velocity of a single GST-D384 molecule at no load (387 nm/s) and the microtubule gliding velocity (481 nm/s) at 1 mM ATP
[4] = biological target: microtubules (polymerized tubulin); test: optical tweezers (single-trap assay); single GST-D384 molecules on a trapped bead, polarity-marked microtubules fixed on glass (amino-silane, glutaraldehyde), trap stiffness 16 fN/nm, 1 mM ATP; duty ratio calculated from the decay of peak force/displacement (run length), (1-rd)^2 = 0.26
[5] = biological target: microtubules (polymerized tubulin)

microtubules (polymerized tubulin), sequence (chain, as listed by the source, chain 1 of 2): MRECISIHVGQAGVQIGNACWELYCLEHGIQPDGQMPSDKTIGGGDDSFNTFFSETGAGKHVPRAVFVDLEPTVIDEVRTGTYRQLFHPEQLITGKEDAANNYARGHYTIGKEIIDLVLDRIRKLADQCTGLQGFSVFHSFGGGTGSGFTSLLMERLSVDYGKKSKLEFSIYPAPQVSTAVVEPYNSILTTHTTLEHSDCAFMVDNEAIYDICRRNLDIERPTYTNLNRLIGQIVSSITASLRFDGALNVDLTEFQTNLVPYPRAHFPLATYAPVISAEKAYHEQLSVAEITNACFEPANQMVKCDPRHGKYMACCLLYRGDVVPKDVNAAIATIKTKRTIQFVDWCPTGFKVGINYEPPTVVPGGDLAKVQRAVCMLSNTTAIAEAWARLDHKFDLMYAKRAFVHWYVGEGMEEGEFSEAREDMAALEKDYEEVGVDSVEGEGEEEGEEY
microtubules (polymerized tubulin), sequence (chain, as listed by the source, chain 2 of 2): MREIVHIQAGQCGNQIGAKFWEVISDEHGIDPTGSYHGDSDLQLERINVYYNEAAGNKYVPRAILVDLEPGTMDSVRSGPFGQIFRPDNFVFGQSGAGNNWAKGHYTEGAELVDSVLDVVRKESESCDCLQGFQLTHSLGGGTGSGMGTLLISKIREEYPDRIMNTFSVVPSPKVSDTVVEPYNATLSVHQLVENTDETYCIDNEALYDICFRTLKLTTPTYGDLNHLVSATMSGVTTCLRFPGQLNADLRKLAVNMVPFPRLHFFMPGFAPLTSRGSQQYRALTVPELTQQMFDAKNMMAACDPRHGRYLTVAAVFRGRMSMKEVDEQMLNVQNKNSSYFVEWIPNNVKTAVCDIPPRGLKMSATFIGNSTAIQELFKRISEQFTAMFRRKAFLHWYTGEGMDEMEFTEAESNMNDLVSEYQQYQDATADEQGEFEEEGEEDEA

Substance: D384 (single-headed human cytoplasmic dynein-1 motor domain) (Homo sapiens)
Km [1]: 31 ± 4 µM
K0.5 [2]: 17.6 ± 0.5 µM

duty ratio rd (fraction of time that each head spends attached to a microtubule) [3]: 0.59
duty ratio rd (fraction of time that each head spends attached to a microtubule) [4]: 0.49
Substance: artificially dimerized dynein construct GST-D384, Q14204 1288-4646

Km^MT: Michaelis-Menten constant for microtubules of the microtubule-stimulated ATPase of D384 (EnzChek phosphate assay, 35 nM dynein, 0-25 μM microtubules, 1 mM ATP, 25 °C) [5]: 50 µM
Substance: human cytoplasmic dynein monomer construct D384, Q14204 1288-4646
